Reference: doi:10.1101/2025.06.11.659033 (bioRxiv, 2025)
Read-outs that look alike come from different tables or passages of the source.

Key:
SEC [1] = molecular target: the molecule itself; assay: SEC
SEC [2] = molecular target: the molecule itself; assay: SEC; remark: listed apart in the source

B1: HDPpf-N4 (Δ37N, 3 C-terminal residues deleted) (domain or fragment, Plasmodium falciparum, UniProt Q8IL04 38-202, looked up)
chain: VYWCFEHKPVKRTIINLIYSHNELKIFSNLLNHPTVGSSLIHELSLDGPYTAFFPSNEAMQLINIESFNKLYNDENKLSEFVLNHVTKEYWLYRDLYGSSYQPWLMYNEKREAPEKLRNLLNNDLIVKIEGEFKHCNHSIYLNGSKIIRPNMKCHNGVVHIVDKP
stoichiometry N (SEC [1]): 2

B2: HDPpf-C10 (Δ44N, C-terminal 6His) (domain or fragment, Plasmodium falciparum, UniProt Q8IL04 45-205, looked up)
chain: KPVKRTIINLIYSHNELKIFSNLLNHPTVGSSLIHELSLDGPYTAFFPSNEAMQLINIESFNKLYNDENKLSEFVLNHVTKEYWLYRDLYGSSYQPWLMYNEKREAPEKLRNLLNNDLIVKIEGEFKHCNHSIYLNGSKIIRPNMKCHNGVVHIVDKPIIF
stoichiometry N (SEC [2]): 2
